Substitutions are numbered along the chain they refer to. Like-named read-outs stand apart in the source and are kept apart here.
Columns and labels:
[1] = molecular target: T1, recombinant CotH3 protein of Rhizopus delemar 99-880 (Flag-TEV-CotH3 made in S. cerevisiae) (Rhizopus delemar 99-880 (Rhizopus …, UniProt I1CFE1 18-579))
T1 sequence: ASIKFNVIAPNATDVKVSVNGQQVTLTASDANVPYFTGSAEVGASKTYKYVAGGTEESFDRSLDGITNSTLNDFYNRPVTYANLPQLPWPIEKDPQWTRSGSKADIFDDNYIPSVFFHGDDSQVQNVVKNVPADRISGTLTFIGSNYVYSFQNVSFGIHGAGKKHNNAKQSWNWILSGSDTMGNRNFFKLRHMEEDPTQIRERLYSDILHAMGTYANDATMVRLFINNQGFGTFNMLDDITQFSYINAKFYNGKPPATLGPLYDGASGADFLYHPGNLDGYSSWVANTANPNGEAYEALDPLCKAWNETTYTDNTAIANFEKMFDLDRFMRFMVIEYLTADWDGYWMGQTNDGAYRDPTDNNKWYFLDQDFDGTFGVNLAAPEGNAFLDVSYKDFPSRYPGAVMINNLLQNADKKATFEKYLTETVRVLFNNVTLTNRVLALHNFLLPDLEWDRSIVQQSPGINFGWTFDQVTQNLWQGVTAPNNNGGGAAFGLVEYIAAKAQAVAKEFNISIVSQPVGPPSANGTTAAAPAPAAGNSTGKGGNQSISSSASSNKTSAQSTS

[2] = molecular target: T1, recombinant CotH3 protein of Rhizopus …; experiment: method and antigen form not stated
[3] = molecular target: T1, recombinant CotH3 protein of Rhizopus …; experiment: not stated (conclusions; reported affinity)
[4] = molecular target: T1, recombinant CotH3 protein of Rhizopus …; experiment: dose response of Fnorm [per mille] against ligand concentration [M], Kd model, On Time 20s, TargetConc 5nM, Unbound 829.3, Bound 803.3, amplitude 26.0, signal to noise 20.5; method and antigen not named in the filing's text
[5] = molecular target: T1, recombinant CotH3 protein of Rhizopus …; experiment: BLI (Gator), from the KD values of Table 5
Description: (§1) The purified preparations were then used to assess the affinity of each clone for the CotH3 antigen by biolayer interferometry using Gator system (ProbeLife). Under the assumption that the CotH3 antigen provided by Vitalex behaves as a normal soluble monomeric protein, a Protein G coated sensor probe (ProbeLife, catalog #160006) was loaded with the bivalent antibody test clone at a concentration of 5 μg/ml in ProbeLife's kinetic buffer (PBS pH 7.4, 0.02% BSA, 0.002% Tween-20, 0.005% NaN₃). […] All reactions were performed at 25° C. The values are chosen when three or more concentrations yield the same kinetic values.

[6] = molecular target: T1, recombinant CotH3 protein of Rhizopus …; experiment: BLI (Gator), antibody on Protein G sensor, CotH3 6.25-400 nM, 25 C
Description: as §1

[7] = molecular target: T1, recombinant CotH3 protein of Rhizopus …; experiment: BLI (Gator), antibody from culture medium on Protein G sensor
Rhizomucor = molecular target: T2, Rhizomucor (Rhizomucor (species not given)); experiment: flow cytometry on fixed Rhizomucor spores, 20 ug/ml antibody; blank 'Hu 2nd Only' median 257.20, mean 272.52
T2 construct: native, on paraformaldehyde-fixed spores; also called cell-surface CotH antigen on Rhizomucor spores

Rhizopus delemar = molecular target: T3, Rhizopus delemar (Rhizopus delemar); experiment: flow cytometry on fixed Rhizopus delemar spores, 20 ug/ml antibody; blank 'Hu 2nd Only' median 565.83, mean 592.76
T3 construct: native, on paraformaldehyde-fixed spores; also called cell-surface CotH antigen on Rhizopus delemar spores

Mucor circinelloides = molecular target: T4, Mucor circinelloides (Mucor circinelloides); experiment: flow cytometry on fixed Mucor circinelloides spores, 20 ug/ml antibody; blank 'Hu 2nd Only' median 990.21, mean 1062.19
T4 construct: native, on paraformaldehyde-fixed spores; also called cell-surface CotH antigen on Mucor circinelloides spores

[8] = molecular target: T5, Cunninghamella bertholletiae (Cunninghamella bertholletiae); experiment: flow cytometry on fixed Cunninghamella bertholletiae spores, 20 ug/ml antibody; blank 'Hu 2nd Only' median 241.78, mean 250.81
T5 construct: native, on paraformaldehyde-fixed spores; also called cell-surface CotH antigen on Cunninghamella bertholletiae spores

B1: mouse anti-CotH3 monoclonal antibody clone C2 (antibody, V domains shown)
VH: DLQLQESGPSLVKPSQTLSLTCSVTGDSITSGYWNWIRKFPGNKLEHMGYIKYSGRTFYNPSLKSRVSITRDTSKNQYYLQLNSVTSEDTATYYCASRGYWGQGTTLTVSS
VL: DVVMTQTPLSLSVTIGQPASISCKSSQSLLYSNGKTYLNWLQQRPGQAPKLLMFQVSKPGIPDRFSGSGSETDFTLKISRVEAEDLGVYYCLQGTYFPHTFGAGTKVEIK
notes: also called 6E11A8 mAb; mAb
[1]
  Kd: 58.9 nM
  koff: 0.00141 s⁻¹
  kon: 23900 M⁻¹ s⁻¹
[2]
  Kd: ~40 nM
[3]
  Kd: ~50 nM
[4]
  Kd: 40.4 nM

B2: C2 Chimera 2 (C2 VH on human IgG1 constant region with AvantGen cloned variable kappa on human kappa constant region) (antibody, V domains shown)
VH: B1 VH
VL: DVVMTQTPLSLSVTIGQPASISCKSSQSLLYSNGKTYLNWLQQRPGQAPKLLMFQVSKPGIPDRFSGSGSETDFTLKISRVEAEDLGVYYCLQGTYFPHTFGAGTKVEIKR
notes: also called AvantGen LC-chimera
[5]
  fold improvement in affinity over the parental mouse mAb: 33 fold
[6]
  Kd: 1.8 nM
  koff: 0.00111 s⁻¹
  kon: 627000 M⁻¹ s⁻¹

B3: humanized variant LC2:HC1 (antibody, V domains shown)
VH: QVQLQESGPGLVKPSETLSLTCTVSGDSITSGYWSWIRQPPGKGLEWIGYIKYSGRTNYNPSLKSRVTISRDTSKNQFSLKLSSVTAADTAVYYCASRGYWGQGTLVTVSS
VL: DIVMTQTPLSLSVTPGQPASISCKSSQSLLDSDGKTFLNWLLQKPGQSPQLLIYLVSKLDSGVPDRFSGSGSGTDFTLKISRVEAEDVGVYYCWQGTHFPHTFGQGTKVEIKR
[7]
  binding result: no binding (tested: 30 nM CotH3)

B4: humanized variant Grafted LC:HC1 (antibody, V domains shown)
VH: B3 VH
VL: DIVMTQTPLSLSVTPGQPASISCKSSQSLLDSDGKTFLYWYLQKPGQSPQLLIYLVSSRFSPDRFSGSGSGTDFTLKISRVEAEDVGVYYCWQGTHFPHTFGQGTKVEIKR
[7]
  binding result: no binding (tested: 30 nM CotH3)

B5: humanized variant LC2:Grafted HC (antibody, V domains shown)
VH: B3 VH with R71V
VL: B3 VL
[7]
  binding result: no binding (tested: 30 nM CotH3)

B6: humanized variant LC1:HC2 (antibody, V domains shown)
VH: B3 VH with W47H, N58F
VL: B3 VL with N39Y, L41Y
[7]
  binding result: no binding (tested: 30 nM CotH3)

B7: humanized variant LC3:Grafted HC (antibody, V domains shown)
VH: B3 VH with R71V
VL: B3 VL with L51R
[7]
  binding result: no binding (tested: 30 nM CotH3)

B8: humanized variant LC3:HC1 (antibody, V domains shown)
VH: B3 VH
VL: B3 VL with L51R
[7]
  binding result: no binding (tested: 30 nM CotH3)

B9: humanized anti-CotH3 antibody LC3:HC3 (antibody, human IgG1, kappa)
heavy: not shown
light: DIVMTQTPLSLSVTPGQPASISCKSSQSLLDSDGKTFLNWLLQKPGQSPQRLIYLVSKLDSGVPDRFSGSGSGTDFTLKISRVEAEDVGVYYCWQGTHFPHTFGQGTKVEIKRTVAAPSVFIFPPSDEQLKSGTASVVCLLNNFYPREAKVQWKVDNALQSGNSQESVTEQDSKDSTYSLSSTLTLSKADYEKHKVYACEVTHQGLSSPVTKSFNRGEC
notes: also called VX01; L3:H3
Rhizomucor
  Mean: FITC-A: 19800
  Median: FITC-A: 19900
Rhizopus delemar
  Mean: FITC-A: 18200
  Median: FITC-A: 17000
Mucor circinelloides
  Mean: FITC-A: 22500
  Median: FITC-A: 18800
[8]
  Mean: FITC-A: 19300
  Median: FITC-A: 18900

B10: humanized anti-CotH3 antibody LC2:HC3 (antibody, human IgG1, kappa, V domains shown)
VH: B3 VH with S35N, W47H, N58F
VL: B3 VL
notes: also called L2:H3; IgG anti-CotH3-LC2HC3
Rhizomucor
  Mean: FITC-A: 29000
  Median: FITC-A: 29000
Rhizopus delemar
  Mean: FITC-A: 28900
  Median: FITC-A: 27700
Mucor circinelloides
  Mean: FITC-A: 40600
  Median: FITC-A: 36500
[8]
  Mean: FITC-A: 29800
  Median: FITC-A: 29200

B11: humanized anti-CotH3 antibody LC3:HC2 (antibody, human IgG1, kappa, V domains shown)
VH: B3 VH with W47H, N58F
VL: B3 VL with L51R
notes: also called L3:H2; IgG anti-CotH3-LC3HC2
Rhizomucor
  Mean: FITC-A: 35900
  Median: FITC-A: 35900
Rhizopus delemar
  Mean: FITC-A: 21800
  Median: FITC-A: 20600
Mucor circinelloides
  Mean: FITC-A: 43200
  Median: FITC-A: 37100
[8]
  Mean: FITC-A: 35600
  Median: FITC-A: 34900

B12: humanized variant LC1:HC1 (antibody, V domains shown)
VH: B3 VH
VL: B3 VL with N39Y, L41Y
[7]
  binding result: no binding (tested: 30 nM CotH3)

B13: humanized variant LC1:HC3 (antibody, V domains shown)
VH: B3 VH with S35N, W47H, N58F
VL: B3 VL with N39Y, L41Y
[7]
  binding result: no binding (tested: 30 nM CotH3)

— patent US20240209070A1 (LUNDQUIST INSTITUTE FOR BIOMEDICAL INNOVATION AT HARBOR …, published 2024)
